The record followed here is patent publication US20240417477A1 (B G NEGEV TECHNOLOGIES AND APPLICATIONS LTD AT BEN GURION …, published 2024).

The target in assay [1] is T1, human Axl recombinant protein (ACROBiosystems) (human, UniProt P30530 26-449, limits assumed).
T1 construct: Coated on ELISA plates; analyte in SPR; also called recombinant AXL; human AXL protein
The experiment in a line: ELISA: human AXL recombinant protein on the plate, dilutions of secreted construct, anti-human-Fc-HRP. As to the method:
(§1) The plates were then blocked, and incubated with serial dilutions of the antibodies. Next, anti-human-FC-HRP (Jackson laboratories) was added to the plates and a reaction was developed with TMB substrates. Once color developed H2SO4 was used to end the reaction. Plates were washed with PBST (PBS containing 0.05% Tween-20) between the steps. Each of the mentioned steps was carried out for 1 hour at room temperature. The plates were then read on a spectrophotometer at 450 nm.
For orientation: An ELISA detects its analyte on a solid surface through an enzyme-linked reagent.

Assay [2] has as its target T2, human PD-1 recombinant protein (ACROBiosystems) (human, UniProt Q15116 25-167, biotinylated (in the ELISA, captured on streptavidin)).
T2 construct: Analyte in SPR; also called recombinant PD-1; human PD-1 protein
The assay is described as follows: ELISA: biotinylated human PD-1 on streptavidin plate, dilutions of secreted construct, anti-human-Fc-HRP. As to the method: as §1

For assay [3], the target named is T2, human PD-1 recombinant protein …. The assay is described as follows: SPR (Biorad ProteOn XPR36), antibody immobilised, recombinant PD-1 as analyte 3.125-50 nM. The source says: (§2) All four constructs were purified using Ni-NTA resins and diluted to different concentrations prior to ELISA binding analysis. […] To further determine the dissociation constant (KD value) of the mono specific and bi-specific antibodies to their respective targets, the surface plasmon resonance (SPR) method was utilized (using Biorad ProteOn XPR36). The different antibodies were immobilized in independent channels on a SPR sensor prism (ProteOn XPR36 compatible chip), as ligands. […] Based on the association and dissociation interaction between each of the recombinant proteins and the respective antibodies, respective KD values were calculated.

In assay [4] the target is T1, human Axl recombinant protein …. The assay is described as follows: SPR (Biorad ProteOn XPR36), antibody immobilised, recombinant AXL as analyte 3.125-50 nM.
Source text: as §2

Assay [5] has as its target T3, AXL expressed on HNSCC tumor cells (SCC47, SNU1076, FaDu) (human, UniProt P30530 26-894). The experiment in a line: cell-based or functional assay.
The target in assay [6] is T4, human PD-1 receptor overexpressed on Bw-PD-1 reporter cells (fusion of PD-1 with a zeta chain) (human, UniProt Q15116 25-288). The assay is described as follows: cell-based or functional assay.
T4 sequence (Q15116 25-288): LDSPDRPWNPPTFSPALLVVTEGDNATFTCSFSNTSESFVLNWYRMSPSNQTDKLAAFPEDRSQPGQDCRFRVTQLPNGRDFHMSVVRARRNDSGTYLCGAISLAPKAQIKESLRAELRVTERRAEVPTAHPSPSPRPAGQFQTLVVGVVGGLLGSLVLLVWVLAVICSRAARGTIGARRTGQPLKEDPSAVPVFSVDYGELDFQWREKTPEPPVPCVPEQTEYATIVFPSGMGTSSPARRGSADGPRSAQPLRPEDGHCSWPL
Assay [7] concerns the target T3, AXL expressed on HNSCC tumor cells …. The assay is described as follows: cell-based or functional assay. The source holds these as a separate data set.
For assay [8], the target named is T4, human PD-1 receptor overexpressed on …. The assay is described as follows: cell-based or functional assay. This is another data set of the same source.
In assay [9] the target is T2, human PD-1 recombinant protein …. The experiment in a line: ELISA: biotinylated recombinant human PD-1 on streptavidin plate, purified antibody 0 to 10 nM, anti-human-Fc-HRP. Here is the method: as §1, §2
Assay [10] addresses T1, human Axl recombinant protein …. The assay is described as follows: ELISA: recombinant human AXL on the plate, purified antibody 0 to 50 nM, anti-human-Fc-HRP. Here is the method:
as §1, §2

T2 sequence (Q15116 25-167 limits assumed): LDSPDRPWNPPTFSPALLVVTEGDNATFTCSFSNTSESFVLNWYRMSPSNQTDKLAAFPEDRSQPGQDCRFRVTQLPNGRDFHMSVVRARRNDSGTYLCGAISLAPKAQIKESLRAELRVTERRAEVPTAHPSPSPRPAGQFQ

B1: Bi-2 bi-specific construct AXL-PD1-Fc (anti-AXL scFv-anti PD1 scFv-Fc) (bispecific antibody)
chain: DIQMTQSPSSLSASVGDRVTITCRASQDVSTAVAWYQQKPGKAPKLLIYSASFLYSGVPSRFSGSGSGTDFTLTISSLQPEDFATYYCQQSYTTPPTFGQGTKVEIKGGGGSGGGGSGGGGSGGGGSEVQLVESGGGLVQPGGSLRLSCAASGFSLSGSWIHWVRQAPGKGLEWVGWINPYRGYAYYADSVKGRFTISADTSKNTAYLQMNSLRAEDTAVYYCAREYSGWGGSSVGYAMDYWGQGTLVGGGGSGGGGSGGGGSGGGGSEIVLTQSPATLSLSPGERATLSCRASQSVSSYLAWYQQKPGQAPRLLIYDASNRATGIPARFSGSGSGTDFTLTISSLEPEDFAVYYCQQSSNWPRTFGQGTKVEIKGGGGSGGGGSGGGGSGGGGSQVQLVESGGGVVQPGRSLRLDCKASGITFSNSGMHWVRQAPGKGLEWVAVIWYDGSKRYYADSVKGRFTISRDNSKNTLFLQMNSLRAEDTAVYYCATNDDYWGQGTLVTVSSGGGGSGGGGSGGGGSGGGGSRSVECPPCPAPPVAGPSVFLFPPKPKDTLMISRTPEVTCVVVDVSHEDPEVKFNWYVDGVEVHNAKTKPREEQYNSTYRVVSVLTVLHQDWLNGKEYKCKVSNKGLPSSIEKTISKAKGQPREPQVYTLPPSREEMTKNQVSLTCLVKGFYPSDIAVEWESNGQPENNYKTTPPVLDSDGSFFLYSKLTVDKSRWQQGNVFSCSVMHEGLHNHYTQKSLSLSPGKHHHHHH
notes: Tandem anti-AXL scFv and anti-PD-1 scFv, engineered human IgG1 Fc, C-terminal His tag; also called BsAbI-AXL/PD-1
Consider B1, for which the binding result in assay [1] and in [2] was “binds” each time.

B2: Bi-3 bi-specific construct PD1-Fc-AXL (anti PD1 scFv-Fc-anti AXL scFv) (bispecific antibody)
chain: EIVLTQSPATLSLSPGERATLSCRASQSVSSYLAWYQQKPGQAPRLLIYDASNRATGIPARFSGSGSGTDFTLTISSLEPEDFAVYYCQQSSNWPRTFGQGTKVEIKGGGGSGGGGSGGGGSGGGGSQVQLVESGGGVVQPGRSLRLDCKASGITFSNSGMHWVRQAPGKGLEWVAVIWYDGSKRYYADSVKGRFTISRDNSKNTLFLQMNSLRAEDTAVYYCATNDDYWGQGTLVTVSSGGGGSGGGGSGGGGSGGGGSRSVECPPCPAPPVAGPSVFLFPPKPKDTLMISRTPEVTCVVVDVSHEDPEVKFNWYVDGVEVHNAKTKPREEQYNSTYRVVSVLTVLHQDWLNGKEYKCKVSNKGLPSSIEKTISKAKGQPREPQVYTLPPSREEMTKNQVSLTCLVKGFYPSDIAVEWESNGQPENNYKTTPPVLDSDGSFFLYSKLTVDKSRWQQGNVFSCSVMHEGLHNHYTQKSLSLSPGKGGGGSGGGGSGGGGSGGGGSDIQMTQSPSSLSASVGDRVTITCRASQDVSTAVAWYQQKPGKAPKLLIYSASFLYSGVPSRFSGSGSGTDFTLTISSLQPEDFATYYCQQSYTTPPTFGQGTKVEIKGGGGSGGGGSGGGGSGGGGSEVQLVESGGGLVQPGGSLRLSCAASGFSLSGSWIHWVRQAPGKGLEWVGWINPYRGYAYYADSVKGRFTISADTSKNTAYLQMNSLRAEDTAVYYCAREYSGWGGSSVGYAMDYWGQGTLVHHHHHH
notes: Anti-PD-1 scFv at the N-terminus and anti-AXL scFv at the C-terminus of an engineered human IgG1 Fc, C-terminal His tag; also called BsAbI-AXL/PD-1; BsAb-AXL/PD1 (Bi-3)
The term Kd denotes the equilibrium constant for the complex coming apart. For orientation: koff means a measure of how fast the partners let go of each other. A word on the kon: it is the second-order rate constant of association. B2: the dissociation constant Kd is 5.82 nM in [3] and 60 nM in assay [4]. For the same molecule, the koff in [3] was 0.000743 s⁻¹; in assay [4], 0.00247 s⁻¹. Also, the on-rate (kon) in assay [3] is 128000 M⁻¹ s⁻¹; in assay [4] it was 41100 M⁻¹ s⁻¹. In addition, the “%Gated 'Doublets & Focused' (image stream, Area BF against Aspect Ratio BF), FaDu-plx GFP cells mixed with DiD-stained Bw-PD-1 cells; same figure: No treatment 690 / 7.6, Combo 442 / 4.9” value in assay [5] and in assay [6] was 17.8 %Gated throughout. Further, the “FaDu GFP / Bw-PD-1 mCherry cell doublets by flow cytometry, against the combination of mono Abs and no treatment” value in assay [7] and in assay [8] was 2.5 fold throughout.

B3: mono-specific anti-AXL scFv-Fc AXL2 (from YW327.6S2) (Fc fusion)
chain: DIQMTQSPSSLSASVGDRVTITCRASQDVSTAVAWYQQKPGKAPKLLIYSASFLYSGVPSRFSGSGSGTDFTLTISSLQPEDFATYYCQQSYTTPPTFGQGTKVEIKGGGGSGGGGSGGGGSGGGGSEVQLVESGGGLVQPGGSLRLSCAASGFSLSGSWIHWVRQAPGKGLEWVGWINPYRGYAYYADSVKGRFTISADTSKNTAYLQMNSLRAEDTAVYYCAREYSGWGGSSVGYAMDYWGQGTLVGGGGSGGGGSGGGGSGGGGS
notes: also called mono-AXL; AXL2 scFv-Fc; not shown: engineered human IgG1 Fc (hinge, CH2, CH3) of plasmid pFUSE-hIgG1e3-Fc2; C-terminal His tag
For B3, in assay [4], the Kd worked out at 20.9 nM, the off-rate (koff) worked out at 0.00102 s⁻¹ and the kon was determined as 49000 M⁻¹ s⁻¹. In [9], the binding result is on record as “no binding (tested: 10 nM)”.

B4: Bi-1 bi-specific construct PD1-AXL-Fc (anti PD1 scFv-anti AXL scFv-Fc) (bispecific antibody)
chain: EIVLTQSPATLSLSPGERATLSCRASQSVSSYLAWYQQKPGQAPRLLIYDASNRATGIPARFSGSGSGTDFTLTISSLEPEDFAVYYCQQSSNWPRTFGQGTKVEIKGGGGSGGGGSGGGGSGGGGSQVQLVESGGGVVQPGRSLRLDCKASGITFSNSGMHWVRQAPGKGLEWVAVIWYDGSKRYYADSVKGRFTISRDNSKNTLFLQMNSLRAEDTAVYYCATNDDYWGQGTLVTVSSGGGGSGGGGSGGGGSGGGGSDIQMTQSPSSLSASVGDRVTITCRASQDVSTAVAWYQQKPGKAPKLLIYSASFLYSGVPSRFSGSGSGTDFTLTISSLQPEDFATYYCQQSYTTPPTFGQGTKVEIKGGGGSGGGGSGGGGSGGGGSEVQLVESGGGLVQPGGSLRLSCAASGFSLSGSWIHWVRQAPGKGLEWVGWINPYRGYAYYADSVKGRFTISADTSKNTAYLQMNSLRAEDTAVYYCAREYSGWGGSSVGYAMDYWGQGTLVGGGGSGGGGSGGGGSGGGGSRSVECPPCPAPPVAGPSVFLFPPKPKDTLMISRTPEVTCVVVDVSHEDPEVKFNWYVDGVEVHNAKTKPREEQYNSTYRVVSVLTVLHQDWLNGKEYKCKVSNKGLPSSIEKTISKAKGQPREPQVYTLPPSREEMTKNQVSLTCLVKGFYPSDIAVEWESNGQPENNYKTTPPVLDSDGSFFLYSKLTVDKSRWQQGNVFSCSVMHEGLHNHYTQKSLSLSPGKHHHHHH
notes: Tandem anti-PD-1 scFv (Nivolumab-derived) and anti-AXL scFv (YW327.6S2-derived), engineered human IgG1 Fc (pFUSE-hIgG1e3-Fc2), C-terminal His tag; also called BsAbI-AXL/PD-1; BsAb-AXL/PD1
The term EC50 (read off the curve) denotes the concentration that produces a half-maximal response. Turning to B4, the binding result in assay [2] is “binds”. The 50% effective concentration (EC50 (read off the curve)) in assay [10] is about 5 nM.

B5: mono-specific anti-PD-1 scFv-Fc PD-1-2 (from Nivolumab) (Fc fusion)
chain: EIVLTQSPATLSLSPGERATLSCRASQSVSSYLAWYQQKPGQAPRLLIYDASNRATGIPARFSGSGSGTDFTLTISSLEPEDFAVYYCQQSSNWPRTFGQGTKVEIKGGGGSGGGGSGGGGSGGGGSQVQLVESGGGVVQPGRSLRLDCKASGITFSNSGMHWVRQAPGKGLEWVAVIWYDGSKRYYADSVKGRFTISRDNSKNTLFLQMNSLRAEDTAVYYCATNDDYWGQGTLVTVSSGGGGSGGGGSGGGGSGGGGS
notes: the tie is by this chain of statements; also called mono-PD-1; mono PD-1; not shown: engineered human IgG1 Fc (hinge, CH2, CH3) of plasmid pFUSE-hIgG1e3-Fc2; C-terminal His tag
As to B5, the binding result in assay [10] was “no binding (tested: 50 nM)”.
